T1: Recombinant Human IL-17 (human, UniProt Q16552 20-155, limits assumed)
T1 construct: bought reagent
T1 sequence (looked up): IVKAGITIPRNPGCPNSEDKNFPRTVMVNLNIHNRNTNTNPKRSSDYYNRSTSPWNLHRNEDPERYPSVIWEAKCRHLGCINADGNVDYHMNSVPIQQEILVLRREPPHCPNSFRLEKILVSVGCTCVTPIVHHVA


Experiments:
[1] = target: T2, Recombinant Human IL-1β (human, UniProt P01584 117-269); assay: Biacore SPR; N-terminal VD
T2 construct: bought reagent; also called IL-1B
Procedure, shortened: (§1)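 Reported constants are kon (M⁻¹s⁻¹), koff (s⁻¹) and KD, calculated as koff/kon from a global 1:1 Langmuir fit. Antigen at 10−200 nM was passed over antibody or DVD-Ig captured on an anti-mouse IgG Fcγ surface in HBS-EP pH 7.4 at 25° C.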

[2] = target: T2, Recombinant Human IL-1β; assay: Biacore SPR; C-terminal VD
Procedure, shortened: as §1

[3] = target: T1, Recombinant Human IL-17; assay: Biacore SPR; N-terminal VD
Procedure, shortened: as §1

Binder	Kd [1] [nM]	koff [1] [s⁻¹]	kon [1] [M⁻¹ s⁻¹]	Kd [2] [nM]	koff [2] [s⁻¹]	kon [2] [M⁻¹ s⁻¹]	Kd [3] [pM]	koff [3] [s⁻¹]	kon [3] [M⁻¹ s⁻¹]
DVD1276 (bispecific antibody, human IgG1, kappa, DVD-Ig, outer AB270, inner AB274, linker set 1; V1 wt hIgG1, V2 kappa; also called DVD1276H; DVD1276L) heavy: not shown light: DTQVTQSPSSLSASVGDRVTITCITSTDIDVDMNWYQQKPGKPPKLLISQGNTLRPGVPSRFSSSGSGTDFTFTISSLQPEDFATYYCLQSDNLPLTFGQGTKLEIKRTVAAPEIVLTQSPDFQSVTPKEKVTITCRASQDIGSELHWYQQKPDQPPKLLIKYASHSTSGVPSRFSGSGSGTDFTLTINGLEAEDAGTYYCHQTDSLPYTFGPGTKVDIKRTVAAPSVFIFPPSDEQLKSGTASVVCLLNNFYPREAKVQWKVDNALQSGNSQESVTEQDSKDSTYSLSSTLTLSKADYEKHKVYACEVTHQGLSSPVTKSFNRGEC	0.082	0.00045	5.6e+06						
DVD1286 (bispecific antibody, human IgG1, kappa, DVD-Ig, outer AB270, inner AB275, linker set 1; V1 wt hIgG1, V2 kappa; also called DVD1286H; DVD1286L) heavy: not shown light: DTQVTQSPSSLSASVGDRVTITCITSTDIDVDMNWYQQKPGKPPKLLISQGNTLRPGVPSRFSSSGSGTDFTFTISSLQPEDFATYYCLQSDNLPLTFGQGTKLEIKRTVAAPEIVLTQSPDFQSVTPKEKVTITCRASQNIGSELHWYQQKPDQSPKLLIKYASHSISGVPSRFSGSGSGTDFTLTINGLEAEDAATYYCHQSDTLPHTFGQGTKVDIKRTVAAPSVFIFPPSDEQLKSGTASVVCLLNNFYPREAKVQWKVDNALQSGNSQESVTEQDSKDSTYSLSSTLTLSKADYEKHKVYACEVTHQGLSSPVTKSFNRGEC	0.07	0.0005	7.2e+06						
DVD1280 (bispecific antibody, human IgG1, kappa, DVD-Ig, outer AB272, inner AB274, linker set 1; V1 wt hIgG1, V2 kappa; also called DVD1280H; DVD1280L) heavy: not shown light: ETTVTQSPSSLSASVGDRVTITCITSTDIDVDMNWYQQKPGKPPKLLISQGNTLRPGVPSRFSSSGSGTDFTFTISSLQPEDFATYYCLQSDNLPLTFGQGTKLEIKRTVAAPEIVLTQSPDFQSVTPKEKVTITCRASQDIGSELHWYQQKPDQPPKLLIKYASHSTSGVPSRFSGSGSGTDFTLTINGLEAEDAGTYYCHQTDSLPYTFGPGTKVDIKRTVAAPSVFIFPPSDEQLKSGTASVVCLLNNFYPREAKVQWKVDNALQSGNSQESVTEQDSKDSTYSLSSTLTLSKADYEKHKVYACEVTHQGLSSPVTKSFNRGEC	0.08	0.00063	7.9e+06						
DVD1626 (bispecific antibody, human IgG1, kappa, DVD-Ig, outer AB273, inner AB271, linker set 3; V1 wt hIgG1, V2 kappa; also called DVD1626H; DVD1626L) heavy: not shown light: DIQMTQSPSSLSASVGDRVTITCRASSGIISYIDWFQQKPGKAPKRLIYATFDLASGVPSRFSGSGSGTDYTLTISSLQPEDFATYYCRQVGSYPETFGQGTKLEIKRTVAAPDTVVTQSPAFLSVTPGEKVTITCITSTDIDVDMNWYQQKPDQPPKLLISQGNTLRPGVPSRFSSSGSGTDFTFTISSLEAEDAATYYCLQSDNLPLTFGQGTKLEIKRTVAAPSVFIFPPSDEQLKSGTASVVCLLNNFYPREAKVQWKVDNALQSGNSQESVTEQDSKDSTYSLSSTLTLSKADYEKHKVYACEVTHQGLSSPVTKSFNRGEC				1	0.00047	470000	3.4	1.6e-05	4.8e+06
DVD1628 (bispecific antibody, human IgG1, kappa, DVD-Ig, outer AB273, inner AB272, linker set 3; V1 wt hIgG1, V2 kappa; also called DVD1628H; DVD1628L) heavy: not shown light: DIQMTQSPSSLSASVGDRVTITCRASSGIISYIDWFQQKPGKAPKRLIYATFDLASGVPSRFSGSGSGTDYTLTISSLQPEDFATYYCRQVGSYPETFGQGTKLEIKRTVAAPETTVTQSPSSLSASVGDRVTITCITSTDIDVDMNWYQQKPGKPPKLLISQGNTLRPGVPSRFSSSGSGTDFTFTISSLQPEDFATYYCLQSDNLPLTFGQGTKLEIKRTVAAPSVFIFPPSDEQLKSGTASVVCLLNNFYPREAKVQWKVDNALQSGNSQESVTEQDSKDSTYSLSSTLTLSKADYEKHKVYACEVTHQGLSSPVTKSFNRGEC				1	0.00049	490000	5.5	2.2e-05	4e+06
DVD1266 (bispecific antibody, human IgG1, kappa, DVD-Ig, outer AB270, inner AB273, linker set 1; V1 wt hIgG1, V2 kappa; also called DVD1266H; DVD1266L) heavy: not shown light: DTQVTQSPSSLSASVGDRVTITCITSTDIDVDMNWYQQKPGKPPKLLISQGNTLRPGVPSRFSSSGSGTDFTFTISSLQPEDFATYYCLQSDNLPLTFGQGTKLEIKRTVAAPDIQMTQSPSSLSASVGDRVTITCRASSGIISYIDWFQQKPGKAPKRLIYATFDLASGVPSRFSGSGSGTDYTLTISSLQPEDFATYYCRQVGSYPETFGQGTKLEIKRTVAAPSVFIFPPSDEQLKSGTASVVCLLNNFYPREAKVQWKVDNALQSGNSQESVTEQDSKDSTYSLSSTLTLSKADYEKHKVYACEVTHQGLSSPVTKSFNRGEC	0.077	0.00046	6e+06						
DVD1270 (bispecific antibody, human IgG1, kappa, DVD-Ig, outer AB272, inner AB273, linker set 1; V1 wt hIgG1, V2 kappa; also called DVD1270H; DVD1270L) heavy: not shown light: ETTVTQSPSSLSASVGDRVTITCITSTDIDVDMNWYQQKPGKPPKLLISQGNTLRPGVPSRFSSSGSGTDFTFTISSLQPEDFATYYCLQSDNLPLTFGQGTKLEIKRTVAAPDIQMTQSPSSLSASVGDRVTITCRASSGIISYIDWFQQKPGKAPKRLIYATFDLASGVPSRFSGSGSGTDYTLTISSLQPEDFATYYCRQVGSYPETFGQGTKLEIKRTVAAPSVFIFPPSDEQLKSGTASVVCLLNNFYPREAKVQWKVDNALQSGNSQESVTEQDSKDSTYSLSSTLTLSKADYEKHKVYACEVTHQGLSSPVTKSFNRGEC	0.1	0.00054	5.3e+06						
DVD1278 (bispecific antibody, human IgG1, kappa, DVD-Ig, outer AB271, inner AB274, linker set 1; V1 wt hIgG1, V2 kappa; also called DVD1278H; DVD1278L) heavy: not shown light: DTVVTQSPAFLSVTPGEKVTITCITSTDIDVDMNWYQQKPDQPPKLLISQGNTLRPGVPSRFSSSGSGTDFTFTISSLEAEDAATYYCLQSDNLPLTFGQGTKLEIKRTVAAPEIVLTQSPDFQSVTPKEKVTITCRASQDIGSELHWYQQKPDQPPKLLIKYASHSTSGVPSRFSGSGSGTDFTLTINGLEAEDAGTYYCHQTDSLPYTFGPGTKVDIKRTVAAPSVFIFPPSDEQLKSGTASVVCLLNNFYPREAKVQWKVDNALQSGNSQESVTEQDSKDSTYSLSSTLTLSKADYEKHKVYACEVTHQGLSSPVTKSFNRGEC	0.069	0.00047	6.9e+06						
DVD1272 (bispecific antibody, human IgG1, kappa, V1 wt hIgG1, V2 kappa; also called DVD1272H; DVD1272L) heavy: not shown light: DIQMTQSPSSLSASVGDRVTITCRASGNIHNYLTWYQQTPGKAPKLLIYNAKTLADGVPSRFSGSGSGTDYTFTISSLQPEDIATYYCQHFWSIPYTFGQGTKLQITRTVAAPEIVLTQSPDFQSVTPKEKVTITCRASQDIGSELHWYQQKPDQPPKLLIKYASHSTSGVPSRFSGSGSGTDFTLTINGLEAEDAGTYYCHQTDSLPYTFGPGTKVDIKRTVAAPSVFIFPPSDEQLKSGTASVVCLLNNFYPREAKVQWKVDNALQSGNSQESVTEQDSKDSTYSLSSTLTLSKADYEKHKVYACEVTHQGLSSPVTKSFNRGEC	0.03	4.5e-05	1.5e+06						
DVD1282 (bispecific antibody, human IgG1, kappa, V1 wt hIgG1, V2 kappa; also called DVD1282H; DVD1282L) heavy: not shown light: DIQMTQSPSSLSASVGDRVTITCRASGNIHNYLTWYQQTPGKAPKLLIYNAKTLADGVPSRFSGSGSGTDYTFTISSLQPEDIATYYCQHFWSIPYTFGQGTKLQITRTVAAPEIVLTQSPDFQSVTPKEKVTITCRASQNIGSELHWYQQKPDQSPKLLIKYASHSISGVPSRFSGSGSGTDFTLTINGLEAEDAATYYCHQSDTLPHTFGQGTKVDIKRTVAAPSVFIFPPSDEQLKSGTASVVCLLNNFYPREAKVQWKVDNALQSGNSQESVTEQDSKDSTYSLSSTLTLSKADYEKHKVYACEVTHQGLSSPVTKSFNRGEC	0.043	7.2e-05	1.7e+06						
DVD1274 (bispecific antibody, human IgG1, kappa, V1 wt hIgG1, V2 kappa; also called DVD1274H; DVD1274L) heavy: not shown light: DIQMTQSPSSLSASVGDRVTITCRASGNIHNYLTWYQQTPGKAPKLLIYNAKTLADGVPSRFSGSGSGTDYTFTISSLQPEDIATYYCQHFWSIPYTFGQGTKLQITRTVAAPEIVLTQSPDFQSVTPKEKVTITCRASQDIGSELHWYQQKPDQPPKLLIKYASHSTSGVPSRFSGSGSGTDFTLTINGLEAEDAGTYYCHQTDSLPYTFGPGTKVDIKRTVAAPSVFIFPPSDEQLKSGTASVVCLLNNFYPREAKVQWKVDNALQSGNSQESVTEQDSKDSTYSLSSTLTLSKADYEKHKVYACEVTHQGLSSPVTKSFNRGEC	0.031	4e-05	1.3e+06						
DVD1284 (bispecific antibody, human IgG1, kappa, V1 wt hIgG1, V2 kappa; also called DVD1284H; DVD1284L) heavy: not shown light: DIQMTQSPSSLSASVGDRVTITCRASGNIHNYLTWYQQTPGKAPKLLIYNAKTLADGVPSRFSGSGSGTDYTFTISSLQPEDIATYYCQHFWSIPYTFGQGTKLQITRTVAAPEIVLTQSPDFQSVTPKEKVTITCRASQNIGSELHWYQQKPDQSPKLLIKYASHSISGVPSRFSGSGSGTDFTLTINGLEAEDAATYYCHQSDTLPHTFGQGTKVDIKRTVAAPSVFIFPPSDEQLKSGTASVVCLLNNFYPREAKVQWKVDNALQSGNSQESVTEQDSKDSTYSLSSTLTLSKADYEKHKVYACEVTHQGLSSPVTKSFNRGEC	0.017	1.9e-05	1.1e+06						
DVD1630 (bispecific antibody, human IgG1, kappa, V1 wt hIgG1, V2 kappa; also called DVD1630H; DVD1630L) heavy: not shown light: EIVLTQSPDFQSVTPKEKVTITCRASQDIGSELHWYQQKPDQPPKLLIKYASHSTSGVPSRFSGSGSGTDFTLTINGLEAEDAGTYYCHQTDSLPYTFGPGTKVDIKRTVAAPDIQMTQSPSSLSASVGDRVTITCRASGNIHNYLTWYQQTPGKAPKLLIYNAKTLADGVPSRFSGSGSGTDYTFTISSLQPEDIATYYCQHFWSIPYTFGQGTKLQITRTVAAPSVFIFPPSDEQLKSGTASVVCLLNNFYPREAKVQWKVDNALQSGNSQESVTEQDSKDSTYSLSSTLTLSKADYEKHKVYACEVTHQGLSSPVTKSFNRGEC				0.45	7.6e-05	170000	4.5	1.6e-05	3.4e+06
DVD1632 (bispecific antibody, human IgG1, kappa, V1 wt hIgG1, V2 kappa; also called DVD1632H; DVD1632L) heavy: not shown light: EIVLTQSPDFQSVTPKEKVTITCRASQDIGSELHWYQQKPDQPPKLLIKYASHSTSGVPSRFSGSGSGTDFTLTINGLEAEDAGTYYCHQTDSLPYTFGPGTKVDIKRTVAAPDIQMTQSPSSLSASVGDRVTITCRASGNIHNYLTWYQQTPGKAPKLLIYNAKTLADGVPSRFSGSGSGTDYTFTISSLQPEDIATYYCQHFWSIPYTFGQGTKLQITRTVAAPSVFIFPPSDEQLKSGTASVVCLLNNFYPREAKVQWKVDNALQSGNSQESVTEQDSKDSTYSLSSTLTLSKADYEKHKVYACEVTHQGLSSPVTKSFNRGEC				0.42	4.7e-05	110000	5	1.6e-05	3.2e+06

Reference: US20120034160A1 (AbbVie / Abbott, published 2012)
